Reference: patent US8507275B2, “Method of inducing differentiation of embryonic stem cells into hemangioblast” (Korea Advanced Institute of Science and Technology (Kaist), priority 2008, dated 2013)

B1: BMP-4: bone morphogenetic protein, growth factor used to regulate differentiation of embryonic stem cells (protein, UniProt P12644 293-408, looked up)
Bone morphogenetic protein 4: SPKHHSQRARKKNKNCRRHSLYVDFSDVGWNDWIVAPPGYQAFYCHGDCPFPLADHLNSTNHAIVQTLVNSVNSSIPKACCVPTELSAISMLYLDEYDKVVLKNYQEMVVEGCGCR
B2: PDGF-BB: Platelet-derived growth factor-BB (protein, UniProt P01127 82-190, looked up)
Platelet-derived growth …: SLGSLTIAEPAMIAECKTRTEVFEISRRLIDRTNANFLVWPPCVEVQRCSGCCNNRNVQCRPTQVQLRPVQVRKIEIVRKKPIFKKATVTLEDHLACKCETVAAARPVT

Tests used:
[1] = system: human embryonic stem cells; test: RT-PCR of mesoderm-specific marker genes in treated human embryonic stem cells; type: cell-based; conditions: PD98059 20˜50 μM, BMP-4 10˜20 ng/ml; 3 days and 5 days; FIG. 2(A)
Experimental: The human embryonic stem cells cultured in Example 1 were cultured for 3 days in a conditioned medium that contained the MEK1/2 inhibitors, PD98059 and BMP-4 at a concentration of 20˜50 μM and 10˜20 ng/ml, respectively. Then, in order to confirm the differentiation of human embryonic stem cells into mesodermal cells, expression of the mesoderm-specific marker genes was examined by RT-PCR. For analysis of gene expression, total RNA was isolated from cells, and cDNA was synthesized using reverse transcriptase, followed by PCR (polymerase-chain reaction) using primers specific to each gene.
As a control group, sample was cultured only in the conditioned medium for 5 days. As experimental groups, cells were cultured for 3 days and 5 days in culture media that were prepared by adding each of PD98059 and BMP-4 to the unconditioned medium at a concentration of 20˜50 μM and 10˜20 ng/ml, respectively. In addition, cells were simultaneously treated with PD98059 and BMP-4, and examined for 3 days and 5 days.

[2] = system: hESC-derived vascular smooth muscle cells; test: Immunofluorescent staining of vascular smooth muscle cell-specific markers; type: cell-based, human; conditions: EGM with PDGF-BB; FIG. 5(b)
Experimental: In order to confirm the differentiation into vascular smooth muscle cell at protein level, expressions of the vascular smooth muscle cell-specific markers were examined by immunofluorescent staining. In order to stain the hESC-derived vascular smooth muscle cells with the vascular smooth muscle cell-specific markers, α-smooth muscle actin (α-SMA) and calponin, the sample was first fixed in 4% paraformaldehyde at room temperature for 20 min, and then washed with a PBST solution (0.1% Tween-20 in PBS) for 5 min three times. To allow permeabilization of antibodies into the nucleus, a permeating solution (0.1% Triton X-100 in PBS) was added to culture plates, and left at room temperature for 15 min. After 15 min, the permeating solution was removed, and 4% NGS (Normal Goat Serum) was added for blocking at room temperature for 1 hr. […] Next day, in order to examine expressions of the markers (α-SMA, calponin) under a fluorescence microscope, secondary antibodies against the marker antibodies (Alexa 488-conjugated Goat anti-mouse IgG and Alexa 594-conjugated Goat anti-Rabbit poly) were added, and left at room temperature for 1 hr. After 1 hr, the culture plates were washed with a PBST solution for 10 min five times, and a fluorescence microscope was used to examine their expressions.

[3] = system: CD34 positive cells (hESC-derived hemangioblasts); test: RT-PCR of vascular smooth muscle cell-specific markers in CD34 positive cells; type: cell-based, human; conditions: EGM with PDGF-BB 50 ng/ml, about 5 days; FIG. 5(a)
Experimental: In order to differentiate CD34 positive cells into vascular smooth muscle cells, CD34 positive cells were cultured for about 5 days in EGM (Endothelial cell Growth Medium, clonetics, USA) containing PDGF-BB at a concentration of 50 ng/ml. Expressions of the vascular smooth muscle cell-specific markers were examined by RT-PCR. For analysis of gene expression, total RNA was isolated from cells, and cDNA was synthesized using reverse transcriptase, followed by PCR (polymerase-chain reaction) using primers specific to each gene.

Row | Molecule | Expressions of the mesoderm-specific markers BRACHYURY, GOOSECOID, TBX-4, TBX-5 and TBX-6 (RT-PCR) [1] | Expressions of the vascular smooth muscle cell-specific markers α-SMA and calponin at protein level (immunofluorescent staining) [2] | Expression of the vascular smooth muscle cell-specific markers SM22α, SM-MHC, PDGF-B receptor, α-SMA and calponin (RT-PCR) [3]
1 | COc1cccc(-c2cc(=O)c3ccccc3o2)c1N [PD98059, 2-(2-amino-3-methoxyphenyl)-4H-1-Benzopyran-4-one2-(2′-Amino-3′-methoxy)-flavone2-(2-amino-3-methoxyphenyl)-chromone, reference compound] | not observed |  | 
2 | B1 | not observed |  | 
3 | B2 |  | observed | found to express
